From US20250147035A1, “METHODS FOR DETECTION OF POST-TRANSLATIONAL MODIFICATIONS” (Quantum-Si Incorporated, priority 2023, published 2025)
Where two headings read alike, the source gives them in different places. Primed or numbered codes have the meaning given here. Where no end group is shown, it is not given here. [ ]: non-standard residue; d: D form. pT = C[C@@H](OP(=O)(O)O)[C@H](N)C(=O)O; pS = N[C@@H](COP(=O)(O)O)C(=O)O; Biotin′ = not defined here

T1: …-Biotin
T1 sequence (peptide, C-terminal Biotin): SAKLDEESILKQ

T2: p…-Biotin
T2 sequence (peptide, phosphothreonine at 1; C-terminal Biotin): TAKLDEESILKQ

T3: pSAKLDEESILKQ-Biotin
T3 peptide: [pS]AKLDEESILKQ-{Biotin′}

T4: TAKLDEESILKQ-Biotin
T4 peptide: TAKLDEESILKQ-{Biotin′}

T5: pTAKLDEESILKQ-Biotin
T5 peptide: [pT]AKLDEESILKQ-{Biotin′}

B1: PM14 (Saccharomyces cerevisiae/RAD53) (other)
chain: MEDQDGKIQGFKIPAHAPIRYTQPKSIEAETREQKLLHSNNTENVKSSKKKGNGRFLTLKPLPDSIIQESLEIQQGVNPFFIGRSEDCNCKIEDNRLSRVHCFIFKKRHAVGKSMYESPAQGLDDIWYCHTGTNVSYLNNNRMIQGTKFLLQDGDEIKIIWDKNNKFVIGFKVEINDTTGLFNEGLGMLQEQRVVLKQTAEEKDLVKKLTQMMAAQRANQPSASSSSMSAKKPPVSDTNNNGNNSVLNDLVESPINANTGNILKRIHSVSLSQSQIDPSKKVKRAKLDQTSKGPENLQFS
B2: PM17 (Human/DIDO1) (other)
chain: MTLFLSRLSTIWKGFINMQSVAKFVTKAYPVSGCFDYLSEDLPDTIHIGGRIAPKTVWDYVGKLKSSVSKELCLIRFHPATEEEEVAYISLYSYFSSRGRFGVVANNNRHVKDLYLIPLSAQDPVPSKLLPFEGPGLESPRPNIILGLVICQKIKRPANS
B3: PM22 (Schizosaccharomyces pombe/FCP1) (other)
chain: MKQKVLKGCRLLFSGVIPLGVDVLSSDIAKWAMSFGAEVVLDFSVPPTHLIAAKIRTEKVKKAVSMGNIKVVKLNWLTESLSQWKRLPESDYLL
B4: PM22: Schizosaccharomyces pombe/FCP1, SEQ ID NO: 22 (protein)
chain: B3 chain
B5: PM20 (Human/RB15B) (other)
chain: MQLGWNGLLVLKNSCFPTSMHILEGDQGVISSLLKDHTSGSKLTQLKIAQRLRLDQPKLDEVTRRIKQGSPNGYAVLLATQATPSGLGTEGMPTVEPGLQRRLLRNLVSYLKQKQAAGVISLPVGGSKGRDGTGMLYAFPPCDFSQQYLQSALRTLGKLEEEHMVIVIVRDTA
B6: PM01 (Human/14-3-3 protein epsilon) (other)
chain: MDDREDLVYQAKLAEQAERYDEMVESMKKVAGMDVELTVEERNLLSVAYKNVIGARRASWRIISSIEQKEENKGGEDKLKMIREYRQMVETELKLICCDILDVLDKHLIPAANTGESKVFYYKMKGDYHRYLAEFATGNDRKEAAENSLVAYKAASDIAMTELPPTHPIRLGLALNFSVFYYEILNSPDRACRLAKAAFDDAIAELDTLSEESYKDSTLIMQLLRDNLTLWTSDMQGDGEEQNKEALQDVEDENQ
B7: PM02 (Human/14-3-3 protein theta) (other)
chain: MEKTELIQKAKLAEQAERYDDMATCMKAVTEQGAELSNEERNLLSVAYKNVVGGRRSAWRVISSIEQKTDTSDKKLQLIKDYREKVESELRSICTTVLELLDKYLIANATNPESKVFYLKMKGDYFRYLAEVACGDDRKQTIDNSQGAYQEAFDISKKEMQPTHPIRLGLALNFSVFYYEILNNPELACTLAKTAFDEAIAELDTLNEDSYKDSTLIMQLLRDNLTLWTSDSAGEECDAAEGAEN
B8: PM03 (Human/14-3-3 protein eta) (other)
chain: MGDREQLLQRARLAEQAERYDDMASAMKAVTELNEPLSNEDRNLLSVAYKNVVGARRSSWRVISSIEQKTMADGNEKKLEKVKAYREKIEKELETVCNDVLSLLDKFLIKNCNDFQYESKVFYLKMKGDYYRYLAEVASGEKKNSVVEASEAAYKEAFEISKEQMQPTHPIRLGLALNFSVFYYEIQNAPEQACLLAKQAFDDAIAELDTLNEDSYKDSTLIMQLLRDNLTLWTSDQQDEEAGEGN
B9: PM11 (Human/TOPBP1) (other)
chain: MVYNMVMSDVTISCTSLEKEKREEVHKYVQMMGGRVYRDLNVSVTHLIAGEVGSKKYLVAANLKKPILLPSWIKTLWEKSQEKKITRYTD
B10: PM13 (Saccharomyces cerevisiae/FHA1) (other)
chain: MENITQPTQQSTQATQRFLIEKFSQEQIGENIVCRVICTTGQIPIRDLSADISQVLKEKRSIKKVWTFGRNPACDYHLGNISRLSNKHFQILLGEDGNLLLNDISTNGTWLNGQKVEKNSNQLLSQGDEITVGVGVESDILSLVIFINDKFKQCLEQNKVDRIRSNLKNTSKIASPGLTSSTASSMVANKTGIFKDFSIIDEVVGQGAFATVKKAIERTTGKTFAVKIISKRKVIGNMDGVTRELEVLQKLNHPRIVRLKGFYEDTESYYMVMEFVSGG
B11: PM23 (Human/Scp1) (other)
chain: MAFEELRVQAENARLDMHFKLKEDHEKIQHLQEEYKKEVNDKENQVSLLLIQRTEKENKMKDLTFLLEESRDKVNQLEDKTKLQDENVKELNKKKDHLTSELEDTKMSLQRSMNTQKALEEDLQIATKTIYQLTEEKEAQMEEFNKAKTDHSFMVTELKATTCTLEELLRTEQQRLVKNED
B12: PM04 (Human/14-3-3 protein gamma) (other)
chain: MVDREQLVQKARLAEQAERYDDMAAAMKNVTELNEPLSNEERNLLSVAYKNVVGARRSSWRVISSIEQKTSADGNEKKIEMVRAYREKIEKELEAVCQDVLSLLDNYLIKNCSETQYESKVFYLKMKGDYYRYLAEVATGEKRATVVESSEKAYSEAHEISKEHMQPTHPIRLGLALNYSVFYYEIQNAPEQACHLAKTAFDDAIAELDTLNEDSYKDSTLIMQLLRDNLTLWTSDQQDDDGGEGNN
B13: PM21 (Human/PHF3) (other)
chain: MTFLARLNFIWKGFINMPSVAKFVTKAYPVSGSPEYLTEDLPDSIQVGGRISPQTVWDYVEKIKASGTKEICVVRFTPVTEEDQISYTLLFAYFSSRKRYGVAANNMKQVKDMYLIPLGATDKIPHPLVPFDGPGLELHRPNLLLGLIIRQKL
B14: PM10 (Human/MCPH1) (other)
chain: MSGRGKKPTRTLVMTSMPSEKQNVVIQVVDKLKGFSIAPDVCETTTHVLSGKPLRTLNVLLGIARGCWVLSYDWVLWSLELGHWISEEPFELSHHFPAAPLCRSECHLSAGPYRGTLFADQPAMFVSPASSPPVAKLCELVHLCGGRVSQVPRQASIVIGPYSGKKKATVKYLSEKWVLDSITQHKVCAPENYLLSQ
B15: PM19 (Human/RBM15) (other)
chain: MAPVASASPKLCLAWQGMLLLKNSNFPSNMHLLQGDLQVASSLLVEGSTGGKVAQLKITQRLRLDQPKLDEVTRRIKVAGPNGYAILLAVPGSSDSRSSSSSAASDTATSTQRPLRNLVSYLKQKQAAGVISLPVGGNKDKENTGVLHAFPPCEFSQQFLDSPAKALAKSEEDYLVMIIVRGFGFQI

Tests used:
…-Biotin = biological target: T1, …-Biotin; assay: Octet (BLI), fixed reagent concentration
SAKLDEESILKQ-Biotin = assay: Octet binding assay of PTM-specific affinity reagent candidates, SA control peptide; set-up: unit not given here; conditions: fixed concentration of reagent
From the text: (§1) This Example characterizes an exemplary phosphorylated threonine recognizer for use in methods of the disclosure.

p[…]-Biotin [1] = assay: Octet binding assay of PTM-specific affinity reagent candidates, pTQR peptide; conditions: fixed concentration of reagent
Protocol: This Example characterizes an exemplary phosphorylated threonine recognizer for use in methods of the disclosure. Octet binding assays at a fixed concentration of PTM-specific affinity reagent candidates were evaluated for binding with phospho-threonine, phospho-serine containing peptides (p[…]-Biotin; p[…]-Biotin; p[…]-Biotin), and control peptides without modifications ([…]-Biotin; […]-Biotin).

p…-Biotin [2] = biological target: T2, p…-Biotin; assay: Octet (BLI), fixed reagent concentration
p[…]-Biotin [3] = assay: Octet binding assay of PTM-specific affinity reagent candidates, pTA peptide; conditions: fixed concentration of reagent
From the text: as §1

pSAKLDEESILKQ-Biotin = biological target: T3, pSAKLDEESILKQ-Biotin; assay: Octet (BLI), fixed reagent concentration;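 further: octet binding of candidate PTM-specific affinity reagents, each at one fixed concentration, to biotinylated phospho-Thr or phospho-Ser peptides, with unmodified biotinylated peptides serving as controls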
Protocol: (§2) Octet binding assays at a fixed concentration of PTM-specific affinity reagent candidates were evaluated for binding with phospho-threonine, phospho-serine containing peptides (p[sequence]-Biotin; p[sequence]-Biotin; p[sequence]-Biotin), and control peptides without modifications ([sequence]-Biotin; [sequence]-Biotin).

TAKLDEESILKQ-Biotin = biological target: T4, TAKLDEESILKQ-Biotin; assay: Octet (BLI), fixed reagent concentration;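 further: octet binding of candidate PTM-specific affinity reagents, each at one fixed concentration, to biotinylated phospho-Thr or phospho-Ser peptides, with unmodified biotinylated peptides serving as controls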
Protocol: as §2

pTAKLDEESILKQ-Biotin = biological target: T5, pTAKLDEESILKQ-Biotin; assay: Octet (BLI), fixed reagent concentration;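 further: octet binding of candidate PTM-specific affinity reagents, each at one fixed concentration, to biotinylated phospho-Thr or phospho-Ser peptides, with unmodified biotinylated peptides serving as controls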
Protocol: as §2

p…-Biotin [4] = assay: Octet (BLI), fixed reagent concentration; remark: listed apart in the source

Molecule	Octet binding assay response (…-Biotin)	Octet binding assay response, pTQR (p[…]-Biotin [1])	Octet binding assay response (pSAKLDEESILKQ-Biotin)	Octet binding assay response (TAKLDEESILKQ-Biotin)	also measured
PM09 (Human/BRCA1 Tandem domain) (from UniProt P38398 1646-1859)	0.1	–	–	–	–
PM03: Human/14-3-3 protein eta, SEQ ID NO: 3	–	0.4	–	–	Octet binding assay response, SA (SAKLDEESILKQ-Biotin; SA = […]-Biotin (control)): 0.3
PM15: Human/Pin1, SEQ ID NO: 15	–	7.4	–	–	Octet binding assay response, SA (SAKLDEESILKQ-Biotin; SA = […]-Biotin (control)): 0.5
PM08 (Human/DLG4) (from UniProt P78352 426-724)	0.3	–	–	–	Octet binding assay response (p…-Biotin [2]): 1.2
PM02: Human/14-3-3 protein theta, SEQ ID NO: 2	–	0.5	–	–	–
PM15 (Human/Pin1) (from UniProt Q13526 1-163)	0.5	–	–	–	–
PM08: Human/DLG4, SEQ ID NO: 8	–	1.2	–	–	–
PM16 (Human/PLK1) (from UniProt P53350 326-603)	0.5	–	–	–	Octet binding assay response (p…-Biotin [2]; pTA phosphothreonine peptide): 1.7; Octet binding assay response (p…-Biotin [2]; pTQR phosphothreonine peptide): 2.1
PM16: Human/PLK1, SEQ ID NO: 16	–	2.1	–	–	Octet binding assay response, pTA (p[…]-Biotin [3]): 1.7
B1	0.2	1.0	0.2	0.1	Octet binding assay response, pTA (p[…]-Biotin [3]): 1.1; Octet binding assay response (p…-Biotin [2]; pTA phosphothreonine peptide): 1.1; Octet binding assay response (p…-Biotin [2]; pTQR phosphothreonine peptide): 1
B2	0.2	–	0.2	–	–
B3	0.2	–	0.1	–	–
B4	–	–	–	–	Octet binding assay response, SA (SAKLDEESILKQ-Biotin; SA = SAKLDEESILKQ-Biotin (control)): 0.2
B5	0.2	0.5	0.2	0.2	Octet binding assay response (p…-Biotin [2]): 0.5; Octet binding assay response (pTAKLDEESILKQ-Biotin): 0.3
B6	0.2	–	0.2	–	–
B7	0.3	–	0.3	0.3	Octet binding assay response (pTAKLDEESILKQ-Biotin): 0.3; Octet binding assay response (p…-Biotin [4]): 0.5
B8	0.3	–	0.2	0.2	Octet binding assay response (pTAKLDEESILKQ-Biotin): 0.2; Octet binding assay response (p…-Biotin [4]): 0.4
B9	0.2	–	0.2	–	–
B10	0.2	3.2	0.3	0.3	Octet binding assay response, SA (SAKLDEESILKQ-Biotin; SA = […]-Biotin (control)): 0.2; Octet binding assay response, pTA (p[…]-Biotin [3]): 1.8; Octet binding assay response (p…-Biotin [2]; pTA phosphothreonine peptide): 1.8; Octet binding assay response (p…-Biotin [2]; pTQR phosphothreonine peptide): 3.2
B11	0.1	0.3	0.1	0.2	Octet binding assay response (p…-Biotin [2]): 0.3; Octet binding assay response (pTAKLDEESILKQ-Biotin): 0.2
B12	0.1	–	0.1	–	–
B13	0.1	0.5	0.2	0.2	Octet binding assay response, SA (SAKLDEESILKQ-Biotin; SA = […]-Biotin (control)): 0.1; Octet binding assay response (p…-Biotin [2]): 0.5; Octet binding assay response (pTAKLDEESILKQ-Biotin): 0.3
B14	0.2	1.0	0.3	0.3	Octet binding assay response, SA (SAKLDEESILKQ-Biotin; SA = […]-Biotin (control)): 0.2; Octet binding assay response (p…-Biotin [2]): 1; Octet binding assay response (pTAKLDEESILKQ-Biotin): 0.3
B15	0.1	1.0	0.1	0.2	Octet binding assay response (p…-Biotin [2]): 1; Octet binding assay response (pTAKLDEESILKQ-Biotin): 0.3
